Assay results from patent publication US20140186344A1 (TRUSTEES OF BOSTON UNIVERSITY, published 2014).
No end group written: not given here. *: point of attachment. 125I = [125I]*

Assays:
[1] = target: T1, Dahl S Dear S44/M74 variant (rat Dual Endothelin-1/Angiotensin II Receptor) (rat (Dahl S/JRHsd), UniProt D3ZGZ6 1-127); assay: saturation radioligand binding, Cos1 membranes; comparison of KH
T1 construct: It was assayed as membranes of transiently transfected Cos1 cells, and as rat kidney membranes on blots; also called Dahl S receptor; Cos1-S
T1 chain: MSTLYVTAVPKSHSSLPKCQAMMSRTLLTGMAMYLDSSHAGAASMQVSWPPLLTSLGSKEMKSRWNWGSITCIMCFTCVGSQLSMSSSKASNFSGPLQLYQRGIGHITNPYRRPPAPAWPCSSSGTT
Description: (§1) Binding of [¹²⁵I]Tyr⁴-angiotensin II and [¹²⁵I]Tyr¹³-endothelin-1 to COS-1 membranes was performed by a rapid filtration method (32, 50). Briefly, [¹²⁵I]Tyr⁴-angiotensin II (0.25˜6.5 nM) or [¹²⁵I]Tyr¹³-endothelin-1 (0.045˜1.46 nM) was incubated with membranes (100 μg) for 20 min at 37° C. in 100 μl buffer A (5 mM MgCl₂, 0.2 mM EDTA, 10 mg/ml BSA, 10 mM Hepes, pH7.4). Binding reactions were terminated by the addition of 1 ml ice-cold buffer A and immediately filtered through a Whatman GF/C filter (presoaked overnight at 4° C. in 10 mg/ml BSA) and subsequently washed with 15 ml ice-cold buffer A. Specific binding was determined as the difference between the total radioactivity bound to membranes and the radioactivity bound to blanks containing 1 μM AngII or 1 μM ET-1. The dissociation constant (Kd) and maximum ligand-binding sites (Bₘₐₓ) were determined using Hill plot analysis (55). Hill coefficient values (h) were calculated from the relationship ln [B/(Bₘₐₓ−B)]=h ln [free Radioligand]−ln Kd. […] The data were best fit by two affinity states determined by Scatchard plot analysis; KH and KL designate the Kd for high- and low-affinity states of the receptor, respectively (44). Most results are expressed as the mean±SE (standard error) from three to five independent experiments.

mouse Dear (Dual …) = target: T2, mouse Dear (Dual Endothelin-1/Angiotensin II Receptor) (mouse, UniProt Q2QKR2 1-127); assay: 125I-ET-1 binding to membranes of Cos-1 cells expressing mouse Dear
T2 construct: Endogenous protein in mouse kidney membranes and embryos was used for the antibody work; also called mouse receptor polypeptide; mouse Dear polypeptide
T2 sequence: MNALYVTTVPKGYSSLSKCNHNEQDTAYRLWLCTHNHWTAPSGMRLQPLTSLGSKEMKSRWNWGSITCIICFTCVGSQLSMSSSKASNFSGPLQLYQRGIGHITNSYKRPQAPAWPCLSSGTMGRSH

[2] = target: T1, Dahl S Dear S44/M74 variant (rat Dual …); assay: saturation radioligand binding, Cos1 membranes; KH, high affinity binding site; the column head says nM but paragraph 132 gives this value in pM
Description: as §1

[3] = target: T3, Dahl R Dear S44P/M74T variant (rat Dual Endothelin-1/Angiotensin II Receptor) (rat (Dahl R/JRHsd), UniProt D3ZGZ6 1-127); assay: as above
T3 construct: It was assayed as membranes of transfected Cos1 cells and as kidney membranes on blots; also called Dahl R receptor; Cos1-R
T3 chain: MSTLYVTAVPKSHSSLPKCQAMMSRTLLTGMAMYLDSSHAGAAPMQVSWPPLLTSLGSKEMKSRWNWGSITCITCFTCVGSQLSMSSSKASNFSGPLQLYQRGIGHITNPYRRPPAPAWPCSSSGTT
Description: as §1

[4] = target: T1, Dahl S Dear S44/M74 variant (rat Dual …); assay: saturation radioligand binding, Cos1 membranes; KL, low affinity binding site; the column head says nM, and the unit is doubtful
Description: as §1

[5] = target: T3, Dahl R Dear S44P/M74T variant (rat Dual …); assay: as above
Description: as §1

B1: [125I]Tyr13-endothelin-1 (peptide, UniProt P05305 53-73, looked up)
peptide: CSCSSLMDKECVY(125I)FCHLDIIW
modifications: ends and bridges not checked
notes: mature; Radiolabelled ligand; also called ET-1
For B1, which “fold increased affinity compared to the Dahl R Dear S44P/M74T variant” value [1] is on record?
The value was 3 fold.

Does B1 bind (mouse Dear (Dual …))?
Result: binds

What about the Kd [2] of the same binder?
The Kd was 0.00442 nM.

What about the Kd [3] of the same binder?
Its Kd is 0.012 nM.

And the Kd [4]?
Its Kd is 0.45 nM.

What about the Kd [5] of the same binder?
The Kd was 0.836 nM.
